In the Human Domainome abundance scans (Beltran et al. 2025):

B1: Apoptosis-associated speck-like protein containing a CARD, residues 114 to 194; numbered along this chain, Q9ULZ3 (parent)
chain: FIDQHRAALIARVTNVEWLLDALYGKVLTDEQYQAVRAEPTNPSKMRKLFSFTPAWNWTCKDLLLQALRESQSYLVEDLER

Variants of: B1
Experiment: abundance fitness (aPCA) (normalised: wild type 0, dead -1); higher = more abundant; growth selection in yeast, the domain comes from the species named
Settings: Homo sapiens

Abundance fitness: each site, then its substitutions
S71: A -0.469, W -0.874, L -0.816, F -0.8, T -0.098, K -0.538, C -0.453, D -0.501, I -0.813, H -0.109, G -0.479, V -0.429, M -0.526, N 0.161, E -0.958, Q -0.251, R -0.529, P -0.774
L68: V -0.527, F -0.477, P -0.569, S -0.838, C -0.688, I 0.001, H -0.334, D -1.01, A -0.733, E -0.886, M -0.449, Y -0.777, Q -0.876, G -0.764, N -0.54, W -1.18
E80: K -0.751, I -0.24, G -0.317, V -0.409, Q -0.115, H 0.018, C -0.347, T -0.172, S -0.204, A -0.283, P -0.467, M -0.325, Y -0.532, D -0.165, R -0.461
L75: Q -0.651, H -0.611, P -0.695, D -0.819, C -0.839, T -0.924, V -0.408, W -0.868, A -0.671, K -0.944, E -0.561, M -0.647, S -0.669
D78: E -0.045, Q -0.137, C -0.124, I -0.186, H -0.034, P -0.687, G -0.228, V -0.45, L -0.167, A -0.286, K -0.303, Y -0.218, W -0.141, N -0.291, T -0.34, S -0.119
V76: D -0.312, R -0.92, S -1.05, W -0.611, A -0.698, K -0.598, Y -0.538, P -0.632, G -0.587, Q -0.952, H -0.959, I -0.056, E -0.838, C -0.497, F -0.637, T -0.558, L -0.27
S73: H -0.144, G 0.067, Q -0.016, L -0.112, M -0.266, C -0.257, P 0.32, T -0.048, D -0.338, A -0.063, I -0.628, R -0.025, V -0.517, W -0.302, Y -0.167, K -0.289, F -0.551, E -0.218, N -0.022
Q72: W -0.615, G -0.627, I -0.977, P -0.987, E 0.116, R -0.691, M -0.545, N 0.141, A -0.191, H 0.009, L -0.633, T -0.659, K -0.626, Y -0.332, S -0.216, V -0.574, C -0.272
L79: T -0.848, E -0.774, Y -0.886, G -0.882, D -0.508, M -0.668, N -0.688, S -0.914, A -0.726, F -0.678, I -0.455, Q -0.706, R -0.751, W -1.06, V -0.775, K -0.857
Y74: N 0.139, C 0.177, E 0.249, R -0.031, S 0.219, Q 0.265, G 0.151, I -0.1, K 0.221, M -0.103, P -0.081, A 0.202, D 0.21, F -0.341, H 0.027, T 0.138, L 0.027
E77: Q -0.124, A -0.209, W -0.399
